From publication PMC5586252, “PP2A-B′ holoenzyme substrate recognition, regulation and role in cytokinesis” (Cell Discovery, 2017)
Blank lines part the entries; values can stand above or below the binder they belong to.

Assays:
B′ε regulatory subunit = target: T1, B′ε regulatory subunit (UniProt Q16537 1-467); test: pull-down; about 10 μg GST-tagged B′-binding motif or GST-pCyk4 on glutathione (GS4B) resin; 10 μg holoenzyme, B′ε or PR70 added; 25 mM Tris pH 8.0, 150 mM NaCl, 3 mM DTT; SDS-PAGE, Coomassie; conditions: both partners purified
T1 construct: PP2A regulatory subunit B′ε, full-length; prey in a GST pull-down, so probably with the GST tag cleaved by TEV; source: E. coli DH5α, purified (GS4B, anion exchange, gel filtration)
T1 sequence (Q16537 whole entry): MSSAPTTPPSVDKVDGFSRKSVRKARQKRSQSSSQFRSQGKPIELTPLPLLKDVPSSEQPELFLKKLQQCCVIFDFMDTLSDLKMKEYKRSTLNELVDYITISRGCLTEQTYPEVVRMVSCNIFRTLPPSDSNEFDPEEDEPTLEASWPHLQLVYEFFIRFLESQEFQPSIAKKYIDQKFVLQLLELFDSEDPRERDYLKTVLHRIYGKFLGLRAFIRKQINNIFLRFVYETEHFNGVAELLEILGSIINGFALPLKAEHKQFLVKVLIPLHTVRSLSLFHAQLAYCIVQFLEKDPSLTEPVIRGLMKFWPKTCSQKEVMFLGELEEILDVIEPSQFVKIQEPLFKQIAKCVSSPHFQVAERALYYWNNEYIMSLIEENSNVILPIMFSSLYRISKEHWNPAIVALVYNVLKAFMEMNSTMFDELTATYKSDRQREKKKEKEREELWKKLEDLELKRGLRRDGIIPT

B′γ1 regulatory subunit = B′γ1 regulatory subunit (UniProt Q13362-2 1-449); test: ITC; 1 mM peptide titrated to 20–50 μM B′γ1; 20 mM HEPES pH 7.5, 200 mM NaCl; VP-ITC; conditions: both partners purified

binding result (B′ε regulatory subunit): binds
B1: GST-pCyk4 (1–177), Plk1-phosphorylated (domain or fragment, human, UniProt Q9H0H5 1-177, looked up)
chain: MDTMMLNVRNLFEQLVRRVEILSEGNEVQFIQLAKDFEDFRKKWQRTDHELGKYKDLLMKAETERSALDVKLKHARNQVDVEIKRRQRAEADCEKLERQIQLIREMLMCDTSGSIQLSEEQKSALAFLNRGQPSSSNAGNKRLSTIDESGSILSDISFDKTDESLDWDSSLVKTFKL
modifications: phosphorylated by Plk1: mono- to pentakis-phosphorylated forms; sites of the tetrakis form S149, S157, S164 and S170
notes: also called GST-Cyk4; source: phosphorylated by Plk1; not shown: GST, N-terminal, kept

Kd (B′γ1 regulatory subunit): 1590 nM
fold stronger binding than the native Cyk4 peptide (B′γ1 regulatory subunit): 15 fold
Binder: LSTIDEEGS [Cyk4 S149E peptide (synthetic, phosphomimetic)]
